Measurements as given in patent publication US20230416313A1 (published 2023).
Blank lines part the entries; values can stand above or below the binder they belong to.

Assays:
[1] = biological target: T1, recombinant human complement factor H (CFH), isolated from moss (human, UniProt P08603 19-1231); test: BLI; steady state
T1 chain: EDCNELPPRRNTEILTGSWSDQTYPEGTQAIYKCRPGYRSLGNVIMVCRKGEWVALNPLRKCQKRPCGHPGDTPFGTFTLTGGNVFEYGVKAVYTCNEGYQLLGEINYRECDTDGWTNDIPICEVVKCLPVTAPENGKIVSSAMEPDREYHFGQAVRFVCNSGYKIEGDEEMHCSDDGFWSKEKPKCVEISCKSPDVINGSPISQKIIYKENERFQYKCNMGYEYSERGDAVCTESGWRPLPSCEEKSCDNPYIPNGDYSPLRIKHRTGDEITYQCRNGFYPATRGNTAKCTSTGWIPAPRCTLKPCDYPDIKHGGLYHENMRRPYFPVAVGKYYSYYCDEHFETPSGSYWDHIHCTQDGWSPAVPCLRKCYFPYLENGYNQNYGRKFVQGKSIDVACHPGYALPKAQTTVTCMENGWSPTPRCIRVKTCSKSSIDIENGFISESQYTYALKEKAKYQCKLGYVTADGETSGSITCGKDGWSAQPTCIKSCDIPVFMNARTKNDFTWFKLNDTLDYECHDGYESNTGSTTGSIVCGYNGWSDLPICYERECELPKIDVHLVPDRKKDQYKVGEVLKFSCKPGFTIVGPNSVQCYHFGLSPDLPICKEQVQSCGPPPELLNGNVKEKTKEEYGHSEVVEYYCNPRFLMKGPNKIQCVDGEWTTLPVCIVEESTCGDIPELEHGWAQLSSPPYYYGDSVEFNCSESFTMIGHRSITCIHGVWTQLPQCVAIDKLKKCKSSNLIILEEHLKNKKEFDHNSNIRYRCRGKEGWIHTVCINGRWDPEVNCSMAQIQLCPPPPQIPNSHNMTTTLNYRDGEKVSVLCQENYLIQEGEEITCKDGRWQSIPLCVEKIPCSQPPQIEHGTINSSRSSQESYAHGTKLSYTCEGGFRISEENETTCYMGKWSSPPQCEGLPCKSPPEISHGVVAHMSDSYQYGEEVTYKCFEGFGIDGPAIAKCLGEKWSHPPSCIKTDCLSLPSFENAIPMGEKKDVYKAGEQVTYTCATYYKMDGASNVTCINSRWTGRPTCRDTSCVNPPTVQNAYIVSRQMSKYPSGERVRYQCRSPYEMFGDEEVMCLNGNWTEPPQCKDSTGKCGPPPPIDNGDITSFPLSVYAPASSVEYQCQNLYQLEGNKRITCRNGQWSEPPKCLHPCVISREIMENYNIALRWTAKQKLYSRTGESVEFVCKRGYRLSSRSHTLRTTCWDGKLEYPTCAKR

[2] = biological target: T1, recombinant human complement factor H …; test: SPR; steady state

Kd [1]: 421 nM
B1: CFH binding protein of SEQ ID NO: 20 (CID 209864) (designed binder)
chain: IAAKFDEAQQAAFYEILHLPNLTELQRNHFIQTLRDDPSVSLWVLGLAQLLNDSQAPKIAAKFDEAQQHAFYTILHLENLTEEQRNAFIQSLRDDPSVSLEVLGEAIKLNISQAPK

Kd [2]: 35 nM
B2: 209202 (protein)
chain: NAADLDEAQISAIFEIMDLPNLTWQQQEWFIDSLSDDPSVSKEVLGEAQKLNDSQAPK

Kd [1]: 120 nM
B3: CFH binding protein of SEQ ID NO: 5 (CID 209447) (designed binder)
chain: NAAEADDAQVSAAMEIIMLPNLTLEQAHSFIESLYRDPSVSKEVLGEAQKLNDSQAPK
